From paper PMC5733394, “A J-Protein Co-chaperone Recruits BiP to Monomerize IRE1 and Repress the Unfolded Protein Response” (Cell, 2017)
Residue numbers refer to the chain shown, from its start. In names and notes the source's numbering stands.

T1: IRE1^LD-GST (human, UniProt O75460 19-486)
T1 construct: IRE1α, human, entire luminal and transmembrane domains, residues 19-486; the cytosolic effector domain is replaced by GST; also called IRE1α luminal and transmembrane domain fused to cytosolic GST; source: ΔERdj4 CHO cells, transfected, in lysate; not shown: GST, C-terminal, kept
T1 sequence (looked up): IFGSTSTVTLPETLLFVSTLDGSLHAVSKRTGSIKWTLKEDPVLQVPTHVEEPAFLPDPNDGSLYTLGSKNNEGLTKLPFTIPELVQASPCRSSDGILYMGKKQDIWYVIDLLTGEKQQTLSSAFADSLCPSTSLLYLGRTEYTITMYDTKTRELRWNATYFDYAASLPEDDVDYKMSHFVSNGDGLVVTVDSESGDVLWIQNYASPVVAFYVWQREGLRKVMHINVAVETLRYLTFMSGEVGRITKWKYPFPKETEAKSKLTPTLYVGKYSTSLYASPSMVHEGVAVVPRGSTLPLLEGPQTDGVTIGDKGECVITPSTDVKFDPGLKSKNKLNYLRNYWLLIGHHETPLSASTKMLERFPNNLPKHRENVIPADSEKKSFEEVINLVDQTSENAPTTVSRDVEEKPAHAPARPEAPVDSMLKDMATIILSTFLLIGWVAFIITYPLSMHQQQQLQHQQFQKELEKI

B1: endogenous BiP (CHO cells) (natural protein)
chain: not shown
notes: BiP, the ER luminal Hsp70, Chinese hamster, endogenous in CHO cells; detected by immunoblot with anti-hamster BiP serum; source: endogenous, CHO cell lysate
B2: IRE1^(LD Q105C)-GST (domain or fragment, human, UniProt O75460 19-486, looked up)
chain: T1 sequence (looked up) with Q87C
modifications: Q105C-Q105C disulfide between two copies in the dimeric species
notes: IRE1α, human, luminal and transmembrane domains as in IRE1^LD-GST (residues 19-486), with Q105C; a modified version of IRE1^LD-GST; source: ΔERdj4 CHO cells, transfected, in lysate; not shown: GST, C-terminal, kept

What was measured:
IRE1^LD-GST = biological target: T1, IRE1^LD-GST; test: pull-down; GST fusions recovered on glutathione Sepharose 4B from lysates of transfected ΔERdj4 CHO cells (co-transfected with ERdj4, ERdj4^QPD or ERdj6 where indicated); ATP-depleting lysis buffer; endogenous BiP by immunoblot; where indicated beads incubated 5 min with 3 mM ATP; details: partners not purified
[1] = biological target: the molecule itself; test: cross-linking; spontaneous Q105C-Q105C disulfide of IRE1^(LD Q105C)-GST in transfected ΔERdj4 CHO cells (alone or with ERdj4 or ERdj4^QPD); glutathione Sepharose; non-reducing SDS-PAGE and immunoblot

Binder	fold recovery of BiP with co-transfected WT ERdj4 against ERdj4^QPD (IRE1^LD-GST)	fold decrease of the disulfide-linked dimeric fraction with co-transfected WT ERdj4 [1]	stoichiometry N [1]
B1	2.5 fold	–	–
B2	–	2.5 fold	2
